Laboratory results: patent US12415847B2, “ApoM-Fc fusion proteins for treating lung diseases” (Children's Medical Center Corporation, priority 2018, dated 2025)

Tests used:
S1P1 receptor [1] = target: T1, S1P1 receptor (Homo sapiens, UniProt P21453); experiment: Nanobit split luciferase assay, Gi-alpha coupling; type: cell-based; settings: transfected 293A cells; 1000 nM-0.3 nM S1P
T1 construct: expressed in transfected cells; host or cells: Human 293A cells, transient PEI transfection
Procedure: (§1) FIGS. 5A-5B. Nanobit analysis of Human ApoMFc-S1P, Mouse ApoMFc-S1P, or BSA-S1P (Positive Control). […] BSA-S1P is the well-established activator of the S1PR1 and it was tested whether Human ApoMFc-S1P, Mouse ApoMFc-S1P gave equivalent induction of receptor activation. Data are the means of triplicate wells with the baseline (pre-stimulation) signal subtracted from the final luciferase signal and graphs are expressed with standard deviation.
(§2) The S1P receptors are members of the G-protein coupled receptor (GPCR) superfamily. Receptor activation is characterized by immediate activation of a G-protein complex (alpha-beta-gamma) that activates multiple intracellular signaling pathways and then secondary activation of coupling to the protein beta-arrestin, which may cause receptor internalization and desensitization as well as activation of other intracellular signaling pathways. […]
(§3) There are two general forms of this assay. […] Upon activation of the GPCR, the G-Protein alpha-beta-gamma complex […] and Luciferase activity may be detected by measuring emitted light in the presence of luciferase substrate (luciferin). […] It is notable that G-Protein assay results in decreased relative fluorescence with increased receptor activation, while the Beta-arrestin coupling assay results in increased relative fluorescence with increased receptor activation. […]
Target sequence in this assay (P21453 whole entry): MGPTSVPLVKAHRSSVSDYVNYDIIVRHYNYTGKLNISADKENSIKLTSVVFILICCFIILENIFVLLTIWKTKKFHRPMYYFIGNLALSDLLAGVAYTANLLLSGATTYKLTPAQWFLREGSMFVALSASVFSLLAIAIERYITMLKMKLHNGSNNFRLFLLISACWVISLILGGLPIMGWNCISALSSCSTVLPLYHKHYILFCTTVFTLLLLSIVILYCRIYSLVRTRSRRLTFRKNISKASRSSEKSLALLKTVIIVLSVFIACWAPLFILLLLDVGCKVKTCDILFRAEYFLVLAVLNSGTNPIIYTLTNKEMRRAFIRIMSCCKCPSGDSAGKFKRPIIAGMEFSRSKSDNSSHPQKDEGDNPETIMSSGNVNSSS

HUVECs = experiment: Trans-endothelial electrical resistance (TEER); type: cell-based, human; settings: 4 μg/well, 250 nM S1P, 6 hour time point
Procedure: FIG. 4. Human and Mouse ApoM-Fc-S1P enhanced endothelial Barrier Protection. Human ApoMFc-S1P (4 μg/well, 250 nM S1P), Mouse ApoMFc-S1P (4 μg/well, 250 nM S1P), or BSA-S1P (250 nM S1P; Positive Control) were analyzed using transepithelial/transendothelial electrical resistance (TEER). The results of TEER analysis of HUVECs at the 6 hour time point are shown. BSA-S1P is the well-established activator of the S1PR1 and it was tested whether Human ApoMFc-S1P, Mouse ApoMFc-S1P gave equivalent induction of receptor activation. All results are normalized to individual well baselines (baseline=1), expressed as the mean of triplicate wells, and Standard Deviation (S.D.) is expressed as gray vertical bars over the course of the data set. […]
0.1 ml of Human Umbilical Vascular Endothelial Cells (HUVECS; 200,000 cells/ml in EGM-2 culture medium, Lonza) were seeded into a 96 well electrical conductance chamber (ECIS Cultureware; Applied Biophysics, Inc) pre-coated with 1% Fibronectin resuspended in Saline. After overnight incubation at 37° C./5% CO2, the 96-well plate was placed on the ECIS reader (Applied Biophysics; Ztheta 96-well array station) and baseline resistance was established which represents the quality of Endothelial junction strength or Endothelial barrier function. […]

S1P1 receptor [2] = target: T1, S1P1 receptor; experiment: Nanobit split luciferase assay, beta-arrestin coupling; type: cell-based; settings: transfected 293A cells; 1000 nM-0.3 nM S1P
Procedure: as §1, §2, §3
Target sequence in this assay (P21453 whole entry): as above
Target sequence in this assay (P49407 whole entry partner): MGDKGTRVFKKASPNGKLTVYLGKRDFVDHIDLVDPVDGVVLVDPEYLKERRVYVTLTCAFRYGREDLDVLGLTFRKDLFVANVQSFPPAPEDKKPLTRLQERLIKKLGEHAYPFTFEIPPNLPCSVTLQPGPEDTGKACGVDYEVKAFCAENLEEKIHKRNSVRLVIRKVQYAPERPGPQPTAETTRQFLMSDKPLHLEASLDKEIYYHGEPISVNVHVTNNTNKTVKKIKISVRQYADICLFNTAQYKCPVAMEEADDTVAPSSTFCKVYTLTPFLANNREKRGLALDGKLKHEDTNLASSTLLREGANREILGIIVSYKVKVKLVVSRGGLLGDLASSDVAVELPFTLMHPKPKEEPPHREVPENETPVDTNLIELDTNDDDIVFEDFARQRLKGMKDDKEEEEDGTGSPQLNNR

activation of Gi-alpha coupling to the S1P1 receptor (S1P1 receptor [1]): equivalently activates
activation of beta-arrestin coupling to the S1P1 receptor (S1P1 receptor [2]): equivalently activates
Substance: Human ApoMFc-S1P: Human ApoM-Human IgG1 Fc (hApoM-Fc) loaded with S1P
endothelial barrier protection (TEER) (HUVECs): enhance endothelial Barrier Protection
